For orientation: Kd means the constant that tells how readily two partners part at equilibrium. One may read the koff as a measure of how fast the partners let go of each other. A low value points to slow dissociation.

This experiment deals with T1, 抗原K27-3Ub (化学合成的K27连接泛素链蛋白) (UniProt P0CG48 1-76, ubiquitin units joined through K27 linkages (K27 of one ubiquitin to the C-terminus of the next); biotinylated (biotin-K27-3Ub) in the ELISA).
T1 construct: Chemically synthesised K27-linked tri-ubiquitin provided by the Liu Lei group, Tsinghua University; also called biotin-K27-3Ub; K27泛素链
The experiment can be described thus: SPR, Biacore 8K, antibody captured on Protein A chip, K27-3Ub as analyte, 1:1 fit.

B1: 全长抗体蛋白IgG.zl1901 (antibody, V domains shown)
VH: EVQLVESGAEVKKPGASVKVSCKASGYTFTSYYMHWVRQAPGQGLEWMGIINPSGGSTSYAQKFQGRVTMTRDTSTSTVYMELSSLRSEDTAVYYCARGLRAELLHYYYGMDVWGQGTTVTVSS
VL: not shown
notes: also called 全长抗体IgG.zl1901
Consider B1, for which binding was characterised by a dissociation constant (Kd) of 3.66 nM and the koff worked out at 0.00234 s⁻¹.

(Values after patent CN114195890A (UNIV SHANGHAI TRAFFIC, dated 2022).)
